Test results: patent US20220324970A1 (Janssen / Centocor, published 2022)
Read-outs that look alike come from different tables or passages of the source.

Experiments:
[1] = target: T1, human pIgR extracellular domain 5 (D5) (human, UniProt P01833 460-565); test: ECL (MSD) heat map, HIS-tagged construct captured via anti-HIS, anti-human-Fc detection;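 further: VHH-mono-Fc molecules tested at 100 µg/ml for 2 h on captured His-tagged pIgR constructs (10 µg/ml), read-out as electrochemiluminescence units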
T1 construct: HIS-tagged construct made in HEK293 cells; also called hpIgR domain 5

[2] = target: T2, human pIgR extracellular domain 1 (D1) (human, UniProt P01833 19-127); test: as above
T2 construct: HIS-tagged construct made in HEK293 cells; also called hpIgR domain-1

[3] = target: T3, human pIgR extracellular domain 4-domain 5 (D4-D5) (human, UniProt P01833 350-565); test: as above
T3 construct: HIS-tagged construct made in HEK293 cells; also called hpIgR domains 4-5
T3 chain: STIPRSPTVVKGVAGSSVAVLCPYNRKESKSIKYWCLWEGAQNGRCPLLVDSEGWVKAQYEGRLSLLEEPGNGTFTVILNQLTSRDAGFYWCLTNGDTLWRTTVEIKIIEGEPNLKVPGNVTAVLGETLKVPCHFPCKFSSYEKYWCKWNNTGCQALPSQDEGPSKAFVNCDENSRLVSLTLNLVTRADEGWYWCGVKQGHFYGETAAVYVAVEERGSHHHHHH

[4] = target: T4, human pIgR extracellular domain 2 (D2) (human, UniProt P01833 128-242); test: as above
T4 construct: HIS-tagged construct made in HEK293 cells; also called hpIgR domain 2

[5] = target: T5, human pIgR extracellular domain 1-domain 2 (D1-D2) (human, UniProt P01833 19-240); test: as above
T5 construct: HIS-tagged construct made in HEK293 cells

[6] = target: T6, human pIgR extracellular domain (ECD) (human, UniProt P01833 19-638); test: ECL (MSD), hpIgR-ECD coated, anti-Fc detection
T6 construct: also called hpIgR ECD

hpIgR_D3 = target: T7, hpIgR_D3; test: ECL (MSD) heat map, HIS-tagged construct captured via anti-HIS, anti-human-Fc detection;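 further: VHH-mono-Fc molecules tested at 100 µg/ml for 2 h on captured His-tagged pIgR constructs (10 µg/ml), read-out as electrochemiluminescence units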
T7 construct: HIS-tagged construct from HEK293 cells; also called human pIgR extracellular domain 3 (D3); hD3
T7 HIS-tagged domain construct: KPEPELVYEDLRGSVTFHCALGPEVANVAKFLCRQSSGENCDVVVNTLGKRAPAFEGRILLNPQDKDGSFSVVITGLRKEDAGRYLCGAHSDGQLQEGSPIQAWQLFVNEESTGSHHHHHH

[7] = target: T4, human pIgR extracellular domain 2 (D2); test: as above; remark: listed apart in the source
[8] = target: T8, human pIgR, full-length, on cells (human, UniProt P01833 19-764); test: flow cytometry on MDCK-hpIgR cells
T8 construct: whole, on cells; Used for the flow cytometry EC50 values (MDCK-hpIgR) and for the transcytosis read-outs; also called hpIgR; cell-surface hpIgR
T8 sequence (P01833 19-764): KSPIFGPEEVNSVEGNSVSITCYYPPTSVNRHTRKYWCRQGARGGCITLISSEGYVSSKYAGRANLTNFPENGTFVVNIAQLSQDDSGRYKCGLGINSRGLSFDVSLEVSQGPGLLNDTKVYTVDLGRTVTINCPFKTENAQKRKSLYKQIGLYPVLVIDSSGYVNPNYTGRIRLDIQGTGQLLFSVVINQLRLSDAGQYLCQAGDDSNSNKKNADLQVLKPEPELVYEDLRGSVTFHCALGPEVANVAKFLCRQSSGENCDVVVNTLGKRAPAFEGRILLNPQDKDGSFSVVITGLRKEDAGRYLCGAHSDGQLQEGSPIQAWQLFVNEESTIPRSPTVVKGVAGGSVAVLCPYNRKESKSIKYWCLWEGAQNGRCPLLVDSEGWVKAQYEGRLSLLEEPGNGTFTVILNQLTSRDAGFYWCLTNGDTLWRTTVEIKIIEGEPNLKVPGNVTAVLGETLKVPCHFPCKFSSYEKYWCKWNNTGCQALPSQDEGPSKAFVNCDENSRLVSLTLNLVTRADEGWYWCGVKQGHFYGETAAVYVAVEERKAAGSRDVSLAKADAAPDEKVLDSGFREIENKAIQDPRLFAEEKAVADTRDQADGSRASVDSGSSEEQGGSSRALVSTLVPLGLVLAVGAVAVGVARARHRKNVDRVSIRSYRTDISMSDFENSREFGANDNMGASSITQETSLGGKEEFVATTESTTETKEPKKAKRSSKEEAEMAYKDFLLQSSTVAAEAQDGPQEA
Experimental: (§1) Flow Cytometry was performed as follows. To test whether VHH-mono-Fc molecules recognize cell-surface hpIgR, Madin-Darby canine kidney (MDCK) cells engineered to express full-length hpIgR were used. Cells were cultured in Dulbecco's modified Eagle's medium containing 10% fetal calf serum at 37° C. with 5% CO₂. Cells were split into equal fractions (≈70,000 cells) and incubated with increasing concentrations of VHH-mono-Fc molecules for 30 min at 4 C. […] Cells were washed twice with cold staining buffer, resuspended in running buffer and analyzed with an iQue Screener (IntelliCyt Corporation). Binding was assessed by RL1 (A647) Geomeans from the live cell population and EC50 was calculated by fitting log VHH concentration versus MFI in Prism (Graphpad).

[9] = target: T8, human pIgR, full-length, on cells; test: flow cytometry on MDCK-hpIgR cells; summary table, repeats Table 1
[10] = target: T8, human pIgR, full-length, on cells; test: cell-based or functional assay
[11] = target: T6, human pIgR extracellular domain (ECD); test: ECL (MSD), hpIgR-ECD coated, anti-VHH detection
Target sequence in this assay (P01833 other isoform, or with tags, fused parts or gaps): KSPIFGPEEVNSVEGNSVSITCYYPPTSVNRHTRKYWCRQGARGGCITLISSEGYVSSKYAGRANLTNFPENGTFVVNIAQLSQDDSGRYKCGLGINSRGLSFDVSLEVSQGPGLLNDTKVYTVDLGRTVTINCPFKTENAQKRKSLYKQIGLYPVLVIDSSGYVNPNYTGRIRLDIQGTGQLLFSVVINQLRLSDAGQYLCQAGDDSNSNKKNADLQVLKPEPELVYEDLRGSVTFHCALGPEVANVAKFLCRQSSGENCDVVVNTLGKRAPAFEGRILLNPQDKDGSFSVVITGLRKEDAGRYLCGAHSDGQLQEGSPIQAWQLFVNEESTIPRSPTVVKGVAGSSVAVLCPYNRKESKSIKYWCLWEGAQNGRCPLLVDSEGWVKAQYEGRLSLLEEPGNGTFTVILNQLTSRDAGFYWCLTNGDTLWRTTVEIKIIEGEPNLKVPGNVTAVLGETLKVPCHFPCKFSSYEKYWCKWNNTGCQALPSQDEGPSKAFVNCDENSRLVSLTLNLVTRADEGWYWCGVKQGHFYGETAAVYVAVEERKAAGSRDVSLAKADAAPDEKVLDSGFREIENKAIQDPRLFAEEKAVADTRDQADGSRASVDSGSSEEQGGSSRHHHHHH
Experimental: To check whether VHH recognizes a buried epitope on pIgR, EC₅₀ values were measured for VHH-mono-Fc molecules binding to hpIgR-ECD protein by electrochemiluminescence using two different detection antibodies, an anti-Fc antibody and an anti-VHH antibody. pIgR ECD (10 μg/ml in PBS) was coated on high-bind MSD plates for 2 hours at RT with 1000 rpm, incubated with blocking buffer for 1 hour at RT, incubated with VHH-mono-Fc molecules (increasing concentrations in PBS) for 2 hours at RT with 1000 rpm, washed 3× with PBT, incubated with ruthenylated secondary antibody (2 μg/ml in PBS) for 1 hour at RT with 1000 rpm, washed 3× with PBT and read plates in 40 ul reading buffer using the MSD imager. EC50 was calculated by fitting log VHH concentration versus log ECLU in Prism (Graphpad). The increase in EC₅₀ (>50-fold) due to anti-VHH detection was used as a measure to determine whether VHH recognized buried epitope on pIgR.

[12] = target: T8, human pIgR, full-length, on cells; test: cell-based or functional assay; remark: listed apart in the source
[13] = target: T6, human pIgR extracellular domain (ECD); test: ECL (MSD), anti-VHH detection against anti-Fc detection
Target sequence in this assay (P01833 other isoform, or with tags, fused parts or gaps): as above

[14] = target: T3, human pIgR extracellular domain …; test: BLI (Octet RED384), 1:1 fit, 25 C, PBS; column kdis
[15] = target: T6, human pIgR extracellular domain (ECD); test: as above
Target sequence in this assay (P01833 other isoform, or with tags, fused parts or gaps): as above

[16] = target: T6, human pIgR extracellular domain (ECD); test: BLI; summary table, repeats Table 1
Target sequence in this assay (P01833 other isoform, or with tags, fused parts or gaps): as above

[17] = target: T8, human pIgR, full-length, on cells; test: flow cytometry on MDCK-hpIgR cells; summary table, repeats Table 1; remark: listed apart in the source
Experimental: as §1

[18] = target: T6, human pIgR extracellular domain (ECD); test: BLI; summary table, repeats Table 1; remark: listed apart in the source
Target sequence in this assay (P01833 other isoform, or with tags, fused parts or gaps): as above

[19] = target: T3, human pIgR extracellular domain …; test: BLI (Octet RED384), 1:1 fit, 25 C, PBS
[20] = target: T6, human pIgR extracellular domain (ECD); test: BLI (Octet RED384), 1:1 fit, 25 C, PBS
Target sequence in this assay (P01833 other isoform, or with tags, fused parts or gaps): as above

hpIgR_D2-D3 = target: T9, hpIgR_D2-D3; test: ECL (MSD) heat map, HIS-tagged construct captured via anti-HIS, anti-human-Fc detection
T9 construct: HIS-tagged construct from HEK293 cells; also called human pIgR extracellular domain 2-domain 3 (D2-D3); hD2-D3
T9 HIS-tagged domain construct: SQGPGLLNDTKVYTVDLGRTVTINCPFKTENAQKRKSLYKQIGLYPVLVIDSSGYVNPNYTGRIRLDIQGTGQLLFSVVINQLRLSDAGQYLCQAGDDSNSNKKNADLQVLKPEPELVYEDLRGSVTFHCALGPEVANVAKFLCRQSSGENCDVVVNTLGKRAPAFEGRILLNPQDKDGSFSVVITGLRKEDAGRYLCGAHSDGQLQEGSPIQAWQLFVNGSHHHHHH

[21] = target: T2, human pIgR extracellular domain 1 (D1); test: as above; remark: listed apart in the source
[22] = target: T8, human pIgR, full-length, on cells; test: cell-based or functional assay; remark: listed apart in the source
[23] = target: T6, human pIgR extracellular domain (ECD); test: BLI (Octet), VHH-mono-Fc and hpIgR ectodomain

B1: VHH1 (Fc fusion)
VHH-linker-mono-Fc chain: QVQLVESGGGLVQAGGSLKLACAAPGLTFSSYRMGWFRQAPGQEREFVAAIDWNGRGTYYRYYADSVKGRSTISRDNAKNTMYLQMNSLKPEDTAVYYCAAGSIDLNWYGGMDYWGQGTQVTVSSEPKTPKPQPQPQLQPQPNPTTESKSPKSPAPELLGGPSVFLFPPKPKDTLMISRTPEVTCVVVDVSHEDPEVKFNWYVDGVEVHNAKTKPREEQYNSTYRVVSVLTVLHQDWLNGKEYKCKVSNKALPAPIEKTISKAKGQPREPQVYTKPPSREEMTKNQVSLSCLVKGFYPSDIAVEWESNGQPENNYKTTVPVLDSDGSFRLASYLTVDKSRWQQGNVFSCSVMHEALHNHYTQKSLSLSPGK
notes: Control VHH; also called mpIgR_011; VHH1-linker-mono-Fc protein
binding result [1]: no binding (tested: 100 ug/ml (single concentration))
binding result [2]: no binding (tested: 100 ug/ml (single concentration))
binding result [3]: no binding (tested: 100 ug/ml (single concentration))
binding result [4]: no binding (tested: 100 ug/ml (single concentration))
binding result [5]: no binding (tested: 100 ug/ml (single concentration))

B2: VHH12-linker-mono-Fc protein (Fc fusion)
chain: QVQLVETGGGLVQAGDSLRLSCAASGRTLSFNTYAMGWFRQAPGKEREFVASITWNGGSTSYADSVKGRFTITRDNAKNTATLRMNSLQPDDTAVYYCAAARYYVSGTYFPANYWGQGTQVTVSSEPKTPKPQPQPQLQPQPNPTTESKSPKSPAPELLGGPSVFLFPPKPKDTLMISRTPEVTCVVVDVSHEDPEVKFNWYVDGVEVHNAKTKPREEQYNSTYRVVSVLTVLHQDWLNGKEYKCKVSNKALPAPIEKTISKAKGQPREPQVYTKPPSREEMTKNQVSLSCLVKGFYPSDIAVEWESNGQPENNYKTTVPVLDSDGSFRLASYLTVDKSRWQQGNVFSCSVMHEALHNHYTQKSLSLSPGK
notes: made in CHO cells; also called VHH12-mono-Fc; hpIgR_266
EC50 [6]: 0.5 nM
binding result (hpIgR_D3): no binding (tested: 100 ug/ml (single concentration))
binding result [7]: no binding (tested: 100 ug/ml (single concentration))
EC50 [8]: 4.6 nM
EC50 [9]: 4.6 nM
Transcytosis (Fold Incr.) [10]: 38.6 fold
EC50 [11]: 0.2 nM
For. Trans. (Fold Incr.) [12]: 29.5 fold
Rev. Trans (Fold Incr.) [12]: 11.7 fold
Fold change in EC50 [13]: 0.4 fold
koff [14]: 0.00281 s⁻¹
koff [15]: 0.00166 s⁻¹
Kd [16]: 34 nM
EC50 [17]: 4.6 nM
Kd [18]: 34 nM
Kd [19]: 73.1 nM
kon [19]: 38500 M⁻¹ s⁻¹
Kd [20]: 43.3 nM
kon [20]: 38300 M⁻¹ s⁻¹
binding result (hpIgR_D2-D3): no binding (tested: 100 ug/ml (single concentration))
binding result [21]: no binding (tested: 100 ug/ml (single concentration))
binding result [5]: no binding (tested: 100 ug/ml (single concentration))
increase in their apical concentration relative to control VHH (MDCK-hpIgR monolayers) [22]: > 10 fold
Kd [23]: 34 nM
